Sequences and labels used below:
B1: Complement factor H (Homo sapiens), P08603 (parent)
chain: MRLLAKIICLMLWAICVAEDCNELPPRRNTEILTGSWSDQTYPEGTQAIYKCRPGYRSLGNVIMVCRKGEWVALNPLRKCQKRPCGHPGDTPFGTFTLTGGNVFEYGVKAVYTCNEGYQLLGEINYRECDTDGWTNDIPICEVVKCLPVTAPENGKIVSSAMEPDREYHFGQAVRFVCNSGYKIEGDEEMHCSDDGFWSKEKPKCVEISCKSPDVINGSPISQKIIYKENERFQYKCNMGYEYSERGDAVCTESGWRPLPSCEEKSCDNPYIPNGDYSPLRIKHRTGDEITYQCRNGFYPATRGNTAKCTSTGWIPAPRCTLKPCDYPDIKHGGLYHENMRRPYFPVAVGKYYSYYCDEHFETPSGSYWDHIHCTQDGWSPAVPCLRKCYFPYLENGYNQNYGRKFVQGKSIDVACHPGYALPKAQTTVTCMENGWSPTPRCIRVKTCSKSSIDIENGFISESQYTYALKEKAKYQCKLGYVTADGETSGSITCGKDGWSAQPTCIKSCDIPVFMNARTKNDFTWFKLNDTLDYECHDGYESNTGSTTGSIVCGYNGWSDLPICYERECELPKIDVHLVPDRKKDQYKVGEVLKFSCKPGFTIVGPNSVQCYHFGLSPDLPICKEQVQSCGPPPELLNGNVKEKTKEEYGHSEVVEYYCNPRFLMKGPNKIQCVDGEWTTLPVCIVEESTCGDIPELEHGWAQLSSPPYYYGDSVEFNCSESFTMIGHRSITCIHGVWTQLPQCVAIDKLKKCKSSNLIILEEHLKNKKEFDHNSNIRYRCRGKEGWIHTVCINGRWDPEVNCSMAQIQLCPPPPQIPNSHNMTTTLNYRDGEKVSVLCQENYLIQEGEEITCKDGRWQSIPLCVEKIPCSQPPQIEHGTINSSRSSQESYAHGTKLSYTCEGGFRISEENETTCYMGKWSSPPQCEGLPCKSPPEISHGVVAHMSDSYQYGEEVTYKCFEGFGIDGPAIAKCLGEKWSHPPSCIKTDCLSLPSFENAIPMGEKKDVYKAGEQVTYTCATYYKMDGASNVTCINSRWTGRPTCRDTSCVNPPTVQNAYIVSRQMSKYPSGERVRYQCRSPYEMFGDEEVMCLNGNWTEPPQCKDSTGKCGPPPPIDNGDITSFPLSVYAPASSVEYQCQNLYQLEGNKRITCRNGQWSEPPKCLHPCVISREIMENYNIALRWTAKQKLYSRTGESVEFVCKRGYRLSSRSHTLRTTCWDGKLEYPTCAKR
partner: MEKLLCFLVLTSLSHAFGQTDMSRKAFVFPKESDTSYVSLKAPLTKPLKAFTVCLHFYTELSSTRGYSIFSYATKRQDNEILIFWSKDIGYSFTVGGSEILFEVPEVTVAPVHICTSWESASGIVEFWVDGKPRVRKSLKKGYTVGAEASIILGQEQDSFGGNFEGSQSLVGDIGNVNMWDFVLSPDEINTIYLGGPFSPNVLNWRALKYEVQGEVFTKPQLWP
B2: Complement factor H (Homo sapiens), P08603 (parent)
chain: B1 chain
partner: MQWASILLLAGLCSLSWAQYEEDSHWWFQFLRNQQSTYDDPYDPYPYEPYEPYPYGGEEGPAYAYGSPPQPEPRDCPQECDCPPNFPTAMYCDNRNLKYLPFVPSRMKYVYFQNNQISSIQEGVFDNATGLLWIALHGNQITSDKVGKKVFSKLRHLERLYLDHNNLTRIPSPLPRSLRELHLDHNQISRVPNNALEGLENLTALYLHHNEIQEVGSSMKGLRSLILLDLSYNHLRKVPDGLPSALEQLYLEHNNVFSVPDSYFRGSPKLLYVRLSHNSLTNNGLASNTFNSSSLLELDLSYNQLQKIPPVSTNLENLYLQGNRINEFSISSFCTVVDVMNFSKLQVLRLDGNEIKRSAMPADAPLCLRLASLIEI

Consider 2 variants from IntAct's records for PubMed 17293598.

The variants in the first experiment derive from B1. As to conditions: with crp_human CRP.
On to Y402H, for which the “effect of a mutation on the interaction” value is “decreasing interaction strength”.

A further experiment covers variants of B2. Conditions: with fmod_bovin FMOD.
On to Y402H, for which the “effect of a mutation on the interaction” value is “decreasing interaction strength”.
